Measured values reported in patent US9260500B2, “Peptide and use thereof” (Takeda Pharmaceutical Company Limited, priority 2009, dated 2016).
Non-standard residues stand in square brackets, D forms with d. *: point of attachment. Tyr(3-F) = N[C@@H](Cc1ccc(O)c(F)c1)C(=O)O; Phe(4-F) = N[C@@H](Cc1ccc(F)cc1)C(=O)O; Arg(Me) = CNC(=N)NCCC[C@H](N)C(=O)O; 3Pal = N[C@@H](Cc1cccnc1)C(=O)O; 4Pal = N[C@@H](Cc1ccncc1)C(=O)O; Cha = N[C@@H](CC1CCCCC1)C(=O)O; αMeP = C[C@@]1(C(=O)O)CCCN1; Isobutyryl = CC(C)C(=O)*; NMeA = CN[C@@H](C)C(=O)O; Abu = CC[C@H](N)C(=O)O; Aib = CC(C)(N)C(=O)O; Bz = O=C(c1ccccc1)*

Columns and labels:
human Y2 receptor [1] = biological target: T1, human Y2 receptor (Homo sapiens, UniProt P49146); test: Human Y2 Receptor G Protein Binding Assay (GBA), [35S]GTPγS; assay type: biochemical; conditions: EC50 of test compound/EC50 of PYY(3-36) (PYY3-36 taken as 1), hY2R/CHO membrane fraction
T1 construct: expressed in transfected cells; membrane fraction
T1 sequence (P49146 1-381): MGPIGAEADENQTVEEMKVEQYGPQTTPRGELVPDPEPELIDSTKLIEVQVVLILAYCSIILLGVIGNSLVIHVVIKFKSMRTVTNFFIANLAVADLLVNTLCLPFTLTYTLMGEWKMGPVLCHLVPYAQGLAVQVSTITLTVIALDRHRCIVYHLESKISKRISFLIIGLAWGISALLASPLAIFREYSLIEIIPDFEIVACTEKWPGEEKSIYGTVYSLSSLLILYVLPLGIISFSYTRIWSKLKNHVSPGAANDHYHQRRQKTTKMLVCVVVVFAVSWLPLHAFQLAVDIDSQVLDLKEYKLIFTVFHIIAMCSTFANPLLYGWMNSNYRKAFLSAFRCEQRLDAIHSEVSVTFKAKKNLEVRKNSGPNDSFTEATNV
Method: (3) Test Method: Human Y2 Receptor G Protein Binding Assay (GBA)
The agonist activity of the compound of the present invention against the human Y2 receptor was measured by the method described below.
2 μL of the test compound, serially diluted with DMSO from 100 μM to 1 nM, was dispensed to a 96-well plate, and 100 μL of the membrane fraction, previously diluted with an assay buffer (50 mM Tris, 5 mM MgCl2, 150 mM NaCl, […], 0.03% NaN3, 0.1% BSA, pH 7.4) to 1 μg protein/mL, was dispensed thereto, subsequently, 100 μL of a [^35S]GTPγS (NEG030H, PerkinElmer, previously diluted with the assay buffer to 1 nM) was added, and they were mixed by pipetting. After incubation at room temperature for 120 minutes, the mixture was filtered through the cell harvester FilterMate (PerkinElmer) using the UniFilter-96 GF/C (PerkinElmer), and the filter was washed 3 times with a filtering buffer (50 mM Tris, 5 mM MgCl2, 150 mM NaCl, 0.03% NaN3, 0.05% CHAPS, pH 7.4). Thereafter, UniFilter-96 GF/C was dried in a mechanical drier for 1 hour, 15 μl of the liquid scintillator MicroScint O (PerkinElmer) was added to each well, and a measurement was taken using TopCount (PerkinElmer). The data obtained were analyzed using Prism to calculate the EC50 value. The agonist activity of the test compound was expressed as a ratio to the EC50 value of PYY3-36 taken as 1 (EC50 Ratio: EC50 of test compound/EC50 of PYY(3-36)). The results are shown in the GBA column in Table 5 (Table 5-1-Table 5-10).

human Y2 receptor [2] = biological target: T1, human Y2 receptor; test: Receptor Binding Assay (RBA) for Human Y2, [125I]-PYY displacement on hY2R/CHO membrane fraction; conditions: IC50 of test compound/IC50 of PYY(3-36) (PYY(3-36) taken as 1)
Method: (1) Construction of Expression Plasmid for the Human Y2 Receptor (Y2R) Gene
PCR was performed by a reaction using Pfu DNA polymerase ([…]), with a human brain cDNA (PT3158-1, Clontech) as the template, wherein synthetic DNAs with the following sequences were used as a combination of 5′ and 3′ primers, whereby the human Y2R gene was cloned. Primer 1 was prepared on the basis of base sequence information on the human Y2R gene (Refseq ID No. NM_000910) with the addition of Kozak's consensus sequence. Primer 2 was prepared on the basis of base sequence information on the human Y2R gene.
The PCR product obtained was cloned into pCR4-Blunt-TOPO (Invitrogen), and the plasmid was extracted according to a conventional method (QIAwell 8 Plus, QIAGEN). After confirming the base sequence, the human Y2R gene was re-cloned by a PCR reaction with the plasmid DNA as the template, using Primer 1 as the 5′ primer and Primer 2 as the 3′ primer. The PCR was performed using the Pyrobest DNA polymerase (TaKaRa). The PCR product obtained was re-cloned into pCR-Blunt II-TOPO (Invitrogen), and the plasmid was extracted according to a conventional method (QIAGEN). An Xho I restriction enzyme digestion site and an Spe I restriction enzyme digestion site are present in the cloning site of the pCR-Blunt II-TOPO; a plasmid clone was selected wherein the human Y2R gene was inserted in the orientation such that the Xho I restriction enzyme digestion site was positioned upstream of Primer 1, and the Spe I restriction enzyme digestion site was positioned downstream of Primer 2. After confirming the base sequence, the plasmid clone was digested with the restriction enzymes Xho I and Spe I to yield a DNA fragment. The DNA fragment was inserted into the animal cell expression vector pAKKO-111H (the same plasmid as pAKKO-1.111H described in Biochem. Biophys. Acta, Hinuma, S. et al., 1219, 251-259 (1994)), which was enzymatically digested with Sal I and Spe I, to yield the expression plasmid pAK-hY2R (pAKKO-111H/Y2R).
(2) Test Method: Receptor Binding Assay (RBA) for Human Y2
A human NPY2R (hY2R) stable expression cell line was acquired by transducing the animal cell expression plasmid pAK-hY2R into CHO/dhfr-cells using the CellPhect Transfection kit (Amersham Pharmacia Biotech Co.). First, 240 μl of Buffer A (attached to the CellPhect Transfection kit) was added to 9.6 μg of the plasmid DNA dissolved in 240 μl of distilled water; this mixture was stirred and allowed to stand for 10 minutes, after which 480 μL of Buffer B (attached to the CellPhect Transfection kit) was added, and the mixture was vigorously stirred to form a liposome containing the DNA. 2.5×10^5 or 4×10^5 CHO/dhfr− cells (obtained from ATCC) were seeded to 60 mm petri dishes, and cultured in Ham's F-12 medium (Sigma Co.) containing 10% fetal bovine serum (BioWest Co.) at 37° C. in 5% gaseous carbon dioxide for 1 day, after which 480 μL of the liposome was added drop by drop on to the cells in each petri dish. This was cultured at 37° C. in 5% gaseous carbon dioxide for 6 hours, after which the cells were twice washed with serum-free Ham's F-12 medium; 3 mL of 15% glycerol was added onto the cells in the petri dish and treated for 2 minutes. This was again washed 3 times with serum-free Ham's F-12 medium, after which the cells were cultured in Ham's F-12 medium containing 10% fetal bovine serum at 37° C. in 5% gaseous carbon dioxide. The cells were dispersed by trypsinization and recovered from the petri dishes, and seeded to a 6-well plate at 2.5×10^4 or 4×10^4 cells per well; cultivation was begun in Dulbecco's modified Eagle medium <DMEM> medium (Sigma Co.) containing dialyzed 10% fetal bovine serum (Invitrogen Co.) at 37° C. in 5% gaseous carbon dioxide. Since plasmid-introduced transformant CHO cells grow in the medium, whereas cells without plasmid introduction die gradually, about 20 colonies of transformed CHO cell that had grown 9-13 days after the start of the cultivation were isolated. […]

Substance | GBA EC50 Ratio (human Y2 receptor [1]) | RBA IC50 Ratio (human Y2 receptor [2])
Isobutanoyl-[Abu26, Cha27,28, Aib31, Tyr(3F)36]-PYY(25-36) (Isobutyryl-R[Abu][Cha][Cha]NL[Aib]TRQR[Tyr(3-F)]-NH2; SMILES CC[C@H](NC(=O)[C@H](CCCNC(=N)N)NC(=O)C(C)C)C(=O)N[C@@H](CC1CCCCC1)C(=O)N[C@@H](CC1CCCCC1)C(=O)N[C@@H](CC(N)=O)C(=O)N[C@@H](CC(C)C)C(=O)NC(C)(C)C(=O)N[C@H](C(=O)N[C@@H](CCCNC(=N)N)C(=O)N[C@@H](CCC(N)=O)C(=O)N[C@@H](CCCNC(=N)N)C(=O)N[C@@H](Cc1ccc(O)c(F)c1)C(N)=O)[C@@H](C)O) [compound No. 87] | 20 | 26
Ac-[D-Ser23, MeAla24, Cha27,28,36, Aib31]-PYY(23-36) (Ac-[dS][NMeA]RH[Cha][Cha]NL[Aib]TRQR[Cha]-NH2; SMILES CC(=O)N[C@H](CO)C(=O)N(C)[C@@H](C)C(=O)N[C@@H](CCCNC(=N)N)C(=O)N[C@@H](Cc1c[nH]cn1)C(=O)N[C@@H](CC1CCCCC1)C(=O)N[C@@H](CC1CCCCC1)C(=O)N[C@@H](CC(N)=O)C(=O)N[C@@H](CC(C)C)C(=O)NC(C)(C)C(=O)N[C@H](C(=O)N[C@@H](CCCNC(=N)N)C(=O)N[C@@H](CCC(N)=O)C(=O)N[C@@H](CCCNC(=N)N)C(=O)N[C@@H](CC1CCCCC1)C(N)=O)[C@@H](C)O) [compound No. 109] | 5.1 | 6.1
Ac-[D-Pro24, Pya(3)26, Cha27,28,36, Aib31]-PYY(23-36) (Ac-S[dP]R[3Pal][Cha][Cha]NL[Aib]TRQR[Cha]-NH2; SMILES CC(=O)N[C@@H](CO)C(=O)N1CCC[C@@H]1C(=O)N[C@@H](CCCNC(=N)N)C(=O)N[C@@H](Cc1cccnc1)C(=O)N[C@@H](CC1CCCCC1)C(=O)N[C@@H](CC1CCCCC1)C(=O)N[C@@H](CC(N)=O)C(=O)N[C@@H](CC(C)C)C(=O)NC(C)(C)C(=O)N[C@H](C(=O)N[C@@H](CCCNC(=N)N)C(=O)N[C@@H](CCC(N)=O)C(=O)N[C@@H](CCCNC(=N)N)C(=O)N[C@@H](CC1CCCCC1)C(N)=O)[C@@H](C)O) [compound No. 148] | 1.2 | 3.3
Ac-[D-Pro24, Pya(4)26, Phe(4F)27, Aib28,31, Lys30, Cha36]-PYY(23-36) (Ac-S[dP]R[4Pal][Phe(4-F)][Aib]NK[Aib]TRQR[Cha]-NH2; SMILES CC(=O)N[C@@H](CO)C(=O)N1CCC[C@@H]1C(=O)N[C@@H](CCCNC(=N)N)C(=O)N[C@@H](Cc1ccncc1)C(=O)N[C@@H](Cc1ccc(F)cc1)C(=O)NC(C)(C)C(=O)N[C@@H](CC(N)=O)C(=O)N[C@@H](CCCCN)C(=O)NC(C)(C)C(=O)N[C@H](C(=O)N[C@@H](CCCNC(=N)N)C(=O)N[C@@H](CCC(N)=O)C(=O)N[C@@H](CCCNC(=N)N)C(=O)N[C@@H](CC1CCCCC1)C(N)=O)[C@@H](C)O) [compound No. 305] | 3.9 | 10
Benzoyl-[Cha27,36, Ile28, Arg(Me)31]-PYY(25-36) (Bz-RH[Cha]INL[Arg(Me)]TRQR[Cha]-NH2) [compound No. 70] | 15 | 18

Continued, values first:

GBA EC50 Ratio (human Y2 receptor [1]) | RBA IC50 Ratio (human Y2 receptor [2]) | Substance
0.89 | 1.2 | Ac-[Phe22, D-Pro24, Pya(4)26, Cha27,36, Aib28,31, Lys30]-PYY(22-36) (Ac-FS[dP]R[4Pal][Cha][Aib]NK[Aib]TRQR[Cha]-NH2; SMILES CC(=O)N[C@@H](Cc1ccccc1)C(=O)N[C@@H](CO)C(=O)N1CCC[C@@H]1C(=O)N[C@@H](CCCNC(=N)N)C(=O)N[C@@H](Cc1ccncc1)C(=O)N[C@@H](CC1CCCCC1)C(=O)NC(C)(C)C(=O)N[C@@H](CC(N)=O)C(=O)N[C@@H](CCCCN)C(=O)NC(C)(C)C(=O)N[C@H](C(=O)N[C@@H](CCCNC(=N)N)C(=O)N[C@@H](CCC(N)=O)C(=O)N[C@@H](CCCNC(=N)N)C(=O)N[C@@H](CC1CCCCC1)C(N)=O)[C@@H](C)O) [compound No. 275]
1.9 | 2.7 | Ac-[Glu23, D-Pro24, Pya(4)26, Cha27,36, Aib28,31, Lys30]-PYY(23-36) (Ac-E[dP]R[4Pal][Cha][Aib]NK[Aib]TRQR[Cha]-NH2; SMILES CC(=O)N[C@@H](CCC(=O)O)C(=O)N1CCC[C@@H]1C(=O)N[C@@H](CCCNC(=N)N)C(=O)N[C@@H](Cc1ccncc1)C(=O)N[C@@H](CC1CCCCC1)C(=O)NC(C)(C)C(=O)N[C@@H](CC(N)=O)C(=O)N[C@@H](CCCCN)C(=O)NC(C)(C)C(=O)N[C@H](C(=O)N[C@@H](CCCNC(=N)N)C(=O)N[C@@H](CCC(N)=O)C(=O)N[C@@H](CCCNC(=N)N)C(=O)N[C@@H](CC1CCCCC1)C(N)=O)[C@@H](C)O) [compound No. 209]
1.3 | 2.8 | Ac-[αMePro24, Cha27,28,36, Aib31]-PYY(23-36) (Ac-S[αMeP]RH[Cha][Cha]NL[Aib]TRQR[Cha]-NH2; SMILES CC(=O)N[C@@H](CO)C(=O)N1CCC[C@@]1(C)C(=O)N[C@@H](CCCNC(=N)N)C(=O)N[C@@H](Cc1c[nH]cn1)C(=O)N[C@@H](CC1CCCCC1)C(=O)N[C@@H](CC1CCCCC1)C(=O)N[C@@H](CC(N)=O)C(=O)N[C@@H](CC(C)C)C(=O)NC(C)(C)C(=O)N[C@H](C(=O)N[C@@H](CCCNC(=N)N)C(=O)N[C@@H](CCC(N)=O)C(=O)N[C@@H](CCCNC(=N)N)C(=O)N[C@@H](CC1CCCCC1)C(N)=O)[C@@H](C)O) [compound No. 154]
